# Assay results from patent publication US10787678 (UNIVERSITY OF GEORGIA RESEARCH FOUNDATION, dated 2020).
# Legend:
# Cry3Bb toxin [1] = target: T1, Cry3Bb toxin (Bacillus thuringiensis, UniProt Q06117 64-652); test: cell-based or functional assay
# Cry3Bb toxin [2] = target: T1, Cry3Bb toxin; test: ELISA, biotinylated peptide titrated on plate-coated activated Cry3Bb; one-site saturation binding fit of specific binding
# T1 sequence (Q06117 64-652 limits assumed): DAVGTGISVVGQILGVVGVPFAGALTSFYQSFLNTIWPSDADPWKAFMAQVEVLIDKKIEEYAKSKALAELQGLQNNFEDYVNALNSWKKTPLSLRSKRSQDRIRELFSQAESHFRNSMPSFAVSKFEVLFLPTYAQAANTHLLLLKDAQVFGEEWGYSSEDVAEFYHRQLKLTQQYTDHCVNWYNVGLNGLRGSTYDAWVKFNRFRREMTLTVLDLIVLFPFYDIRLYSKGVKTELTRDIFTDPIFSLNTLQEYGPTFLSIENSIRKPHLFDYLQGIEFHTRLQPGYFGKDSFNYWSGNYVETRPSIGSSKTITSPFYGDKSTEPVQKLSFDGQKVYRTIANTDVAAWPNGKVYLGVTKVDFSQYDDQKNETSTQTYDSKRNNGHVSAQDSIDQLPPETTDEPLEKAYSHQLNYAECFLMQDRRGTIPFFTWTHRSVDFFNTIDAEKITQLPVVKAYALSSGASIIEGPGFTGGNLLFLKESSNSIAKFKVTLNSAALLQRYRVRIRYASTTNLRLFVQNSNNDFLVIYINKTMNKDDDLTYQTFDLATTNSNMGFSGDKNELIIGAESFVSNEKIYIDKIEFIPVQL
Binder,"larval mortality with Cry3Bb (10 ug/cm^2) plus peptide at a 1:10 mass ratio, against 10% with toxin alone (Cry3Bb toxin [1]) [%]",Kd (Cry3Bb toxin [2]) [nM]
"AdCad1-CR9 peptide (biotinylated with sulfo-NHS-photocleavable biotin (50-fold molar excess) in the binding assay, Expressed in E. coli from pET-30a (Nde I / Xho I), purified from inclusion bodies on a Ni-chelating column; In the bioassays it was used unlabelled, as inclusion bodies; also called biotinylated-AdCad1-CR9; not shown: C-terminal His-tag from the pET-30a vector) TEMIYKLTVEASIKEQTQINGKPTFARCEFNVGFFDKDNTDPIFKNKHEDTHEMAEEDDTLFYVLIENATYAKEDVPDDLSTFYLLAEGERDIFDVDKFTGKVTLNKPLDYETKKSHSLTIQSSNSDKLKLNASEETKLHLTIIVTDINDHAPVM",> 25,23.2
"AdCad1-MPED peptide (biotinylated with sulfo-NHS-photocleavable biotin (50-fold molar excess) in the binding assay, Expressed in E. coli from pET-30a (Nde I / Xho I), purified from inclusion bodies on a Ni-chelating column; In the bioassays it was used unlabelled, as inclusion bodies; also called biotinylated-AdCad1-MPED; not shown: C-terminal His-tag from the pET-30a vector) DSDSYITVLPLVDAVSTAKLVTIHATDPDDTSEVQYQIESCIGSGDLLQKLCGNNPFEINKISGEISAQIQSANLSKWDGHFNLTVTAADEAGFDDKNHTDEAVVTLYLVTKLHLVAFDFENSLEQVQNKSNEIKTILDEQFAETSDGGTPYVATVQGANAKSDEITTATVYFLNLKQQKPVNKDNIYSYCTNTQYFGSMRSAFLAEGLSLMSFDGTSNETEDMEEILT",> 25,40.6
